Source: paper PMC2734569, “Functional mapping of the fission yeast DNA polymerase δ B-subunit Cdc1 by site-directed and random pentapeptide insertion mutagenesis” (BMC Molecular Biology, 2009)

Tests used:
Experiment in all cases: two-hybrid; LexA-Cdc1 bait (pBTM116 or pBTM116BN) with Gal4-Pol3 prey and co-expressed c-myc-tagged Cdc27 (pAA-Cdc27) in S. cerevisiae CTY10-5d; ONPG liquid culture beta-galactosidase assay, mean of triplicates, as percent of wild-type Cdc1
Conditions in all cases: partners not purified
[1] = molecular target: T1, Cdc1-E9 (Schizosaccharomyces pombe, UniProt P87324 1-462, Tyr-GlyGlyTyrProTyr-Gly)
T1 construct: Cdc1, S. pombe, with a pentapeptide inserted after residue 124; source: yeast two-hybrid fusion, in S. cerevisiae CTY10-5d
T1 sequence (looked up): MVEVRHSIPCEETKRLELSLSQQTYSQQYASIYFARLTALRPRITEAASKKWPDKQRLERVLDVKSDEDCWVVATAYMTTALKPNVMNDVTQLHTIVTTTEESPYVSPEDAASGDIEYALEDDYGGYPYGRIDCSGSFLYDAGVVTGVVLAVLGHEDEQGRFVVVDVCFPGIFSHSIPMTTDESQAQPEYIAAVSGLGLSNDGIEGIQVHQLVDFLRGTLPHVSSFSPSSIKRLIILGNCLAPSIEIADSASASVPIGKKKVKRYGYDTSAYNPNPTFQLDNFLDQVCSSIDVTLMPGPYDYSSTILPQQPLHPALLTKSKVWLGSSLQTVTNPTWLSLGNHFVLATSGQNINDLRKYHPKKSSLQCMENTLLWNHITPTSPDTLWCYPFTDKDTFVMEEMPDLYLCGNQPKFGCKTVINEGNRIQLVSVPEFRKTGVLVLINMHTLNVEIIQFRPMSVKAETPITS

[2] = molecular target: T2, Cdc1-J22 (Schizosaccharomyces pombe, UniProt P87324 1-462, Arg-GlyValProLeuArg-Gly)
T2 construct: Cdc1, S. pombe, with a pentapeptide inserted after residue 212; source: yeast two-hybrid fusion, in S. cerevisiae CTY10-5d
T2 sequence (looked up): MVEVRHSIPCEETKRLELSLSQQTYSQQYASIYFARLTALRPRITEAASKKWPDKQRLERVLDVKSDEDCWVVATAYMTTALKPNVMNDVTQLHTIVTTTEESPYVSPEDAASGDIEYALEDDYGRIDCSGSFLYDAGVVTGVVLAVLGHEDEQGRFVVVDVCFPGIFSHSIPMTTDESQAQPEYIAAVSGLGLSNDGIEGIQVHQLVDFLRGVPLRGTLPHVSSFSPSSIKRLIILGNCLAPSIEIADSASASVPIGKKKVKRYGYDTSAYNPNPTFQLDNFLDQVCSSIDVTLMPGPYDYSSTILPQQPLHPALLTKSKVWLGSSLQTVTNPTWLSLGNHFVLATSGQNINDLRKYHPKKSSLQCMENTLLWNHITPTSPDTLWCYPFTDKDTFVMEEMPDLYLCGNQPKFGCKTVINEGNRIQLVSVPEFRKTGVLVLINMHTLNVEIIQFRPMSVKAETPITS

[3] = molecular target: T3, Cdc1-A5 (Schizosaccharomyces pombe, UniProt P87324 1-462, Asn328Ala)
T3 construct: Cdc1, S. pombe, point mutant; source: yeast two-hybrid fusion, in S. cerevisiae CTY10-5d
T3 sequence (looked up): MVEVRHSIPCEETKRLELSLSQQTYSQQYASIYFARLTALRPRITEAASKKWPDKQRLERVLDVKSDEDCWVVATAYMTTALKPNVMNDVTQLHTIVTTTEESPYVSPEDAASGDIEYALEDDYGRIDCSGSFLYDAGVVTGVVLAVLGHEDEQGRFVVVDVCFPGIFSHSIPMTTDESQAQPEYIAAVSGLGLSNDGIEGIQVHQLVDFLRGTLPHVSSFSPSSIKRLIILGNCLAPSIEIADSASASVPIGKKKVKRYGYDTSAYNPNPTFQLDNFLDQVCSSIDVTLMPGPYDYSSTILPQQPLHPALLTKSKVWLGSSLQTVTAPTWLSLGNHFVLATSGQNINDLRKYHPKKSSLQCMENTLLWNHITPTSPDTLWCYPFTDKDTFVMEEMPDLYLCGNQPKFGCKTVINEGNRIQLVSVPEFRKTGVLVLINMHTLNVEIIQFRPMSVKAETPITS

[4] = molecular target: T4, Cdc1-E2 (Schizosaccharomyces pombe, UniProt P87324 1-26)
T4 construct: Cdc1, S. pombe, truncated after amino acid 26 by a 16 nt insertion; residues coded by the 16 nt insertion before the stop codon (printed as GlyValProLysTer); source: yeast two-hybrid fusion, in S. cerevisiae CTY10-5d
T4 chain: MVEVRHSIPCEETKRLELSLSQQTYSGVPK

B1: Pol3 (fission yeast DNA polymerase delta catalytic subunit) (natural protein, Schizosaccharomyces pombe, UniProt P30316 1-1086, looked up)
chain: MTDRSSNEGVVLNKENYPFPRRNGSIHGEITDVKRRRLSERNGYGDKKGSSSKEKTSSFEDELAEYASQLDQDEIKSSKDQQWQRPALPAINPEKDDIYFQQIDSEEFTEGSVPSIRLFGVTDNGNSILVHVVGFLPYFYVKAPVGFRPEMLERFTQDLDATCNGGVIDHCIIEMKENLYGFQGNEKSPFIKIFTTNPRILSRARNVFERGEFNFEELFPVGVGVTTFESNTQYLLRFMIDCDVVGMNWIHLPASKYQFRYQNRVSNCQIEAWINYKDLISLPAEGQWSKMAPLRIMSFDIECAGRKGVFPDPSIDPVIQIASIVTQYGDSTPFVRNVFCVDTCSQIVGTQVYEFQNQAEMLSSWSKFVRDVDPDVLIGYNICNFDIPYLLDRAKSLRIHNFPLLGRIHNFFSVAKETTFSSKAYGTRESKTTSIPGRLQLDMLQVMQRDFKLRSYSLNAVCSQFLGEQKEDVHYSIITDLQNGTADSRRRLAIYCLKDAYLPQRLMDKLMCFVNYTEMARVTGVPFNFLLARGQQIKVISQLFRKALQHDLVVPNIRVNGTDEQYEGATVIEPIKGYYDTPIATLDFSSLYPSIMQAHNLCYTTLLDSNTAELLKLKQDVDYSVTPNGDYFVKPHVRKGLLPIILADLLNARKKAKADLKKETDPFKKAVLDGRQLALKVSANSVYGFTGATNGRLPCLAISSSVTSYGRQMIEKTKDVVEKRYRIENGYSHDAVVIYGDTDSVMVKFGVKTLPEAMKLGEEAANYVSDQFPNPIKLEFEKVYFPYLLISKKRYAGLFWTRTDTYDKMDSKGIETVRRDNCPLVSYVIDTALRKMLIDQDVEGAQLFTKKVISDLLQNKIDMSQLVITKALSKTDYAAKMAHVELAERMRKRDAGSAPAIGDRVAYVIIKGAQGDQFYMRSEDPIYVLENNIPIDAKYYLENQLSKPLLRIFEPILGEKASSLLHGDHTRTISMAAPSVGGIMKFAVKVETCLGCKAPIKKGKTALCENCLNRSAELYQRQVAQVNDLEVRFARLWTQCQRCQGSMHQDVICTSRDCPIFYMRIAEHKKLQQSVDLLKRFDEMSW
notes: DNA polymerase delta catalytic subunit Pol3, S. pombe; prey plasmid named pACT-Pol3 in the results and pGAD2F-Pol3 in the methods; also called Gal4-Pol3; pACT-Pol3; source: yeast two-hybrid fusion, in S. cerevisiae CTY10-5d
- two-hybrid beta-galactosidase activity, % of wild-type Cdc1 [1]: 24%
- two-hybrid beta-galactosidase activity, % of wild-type Cdc1 [2]: 25%
- two-hybrid beta-galactosidase activity, % of wild-type Cdc1 [3]: 4%
- two-hybrid beta-galactosidase activity, % of wild-type Cdc1 [4]: < 1%
